{
  "source": "patent US6972319B1",
  "about": "“Pituitary adenylate cyclase activating peptide (PACAP)receptor 3 (R3) agonists and their pharmacological methods of use” (priority 1999, dated 2005)",
  "note": "No end group written: not given here.",
  "data": [
    {"biological_target": "T1, PACAP-R3 (human, UniProt P41587 24-438)", "T1 sequence (looked up)": "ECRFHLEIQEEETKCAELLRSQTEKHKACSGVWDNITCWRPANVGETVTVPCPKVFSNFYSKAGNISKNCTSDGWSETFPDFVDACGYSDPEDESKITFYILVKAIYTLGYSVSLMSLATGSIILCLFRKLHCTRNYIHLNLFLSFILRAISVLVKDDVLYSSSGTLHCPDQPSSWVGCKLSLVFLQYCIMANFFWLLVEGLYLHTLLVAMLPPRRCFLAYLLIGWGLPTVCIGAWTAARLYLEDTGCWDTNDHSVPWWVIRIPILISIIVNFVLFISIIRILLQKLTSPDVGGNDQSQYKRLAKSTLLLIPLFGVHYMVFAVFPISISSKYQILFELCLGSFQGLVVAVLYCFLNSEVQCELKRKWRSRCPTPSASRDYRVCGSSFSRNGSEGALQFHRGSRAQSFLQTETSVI", "test": "cell-based or functional assay", "settings": "not given", "units": {"R3 EC50, nM (cAMP SPA)": "nM", "R3 Selectivity": "ratio"}, "values": [
      {"molecule": "HSDGIFTDSYSRYRKQMAVKKYKAAVL-NH2", "note": "[PAC23]", "R3 EC50, nM (cAMP SPA)": 13, "R3 Selectivity": 13},
      {"molecule": "HSDGIFTDSYSRYRKQMAVKKYLAKVL-NH2", "note": "[PAC25]", "R3 EC50, nM (cAMP SPA)": 0.04, "R3 Selectivity": 3},
      {"molecule": "HSDAVFTDNYTRLRKQMAGKKYLNSIKNRI", "note": "[rR3P175]", "R3 EC50, nM (cAMP SPA)": 2.2, "R3 Selectivity": 180},
      {"molecule": "HSDAVFTDNYTRLRKQMASKKYLNSIPNRI", "note": "[rR3P183]", "R3 EC50, nM (cAMP SPA)": 5.4, "R3 Selectivity": "> 30"},
      {"molecule": "HSDGIFTDSYSRYRKQMAVKKKLAAVL-NH2", "note": "[PAC22]", "R3 EC50, nM (cAMP SPA)": 15, "R3 Selectivity": 0.1},
      {"molecule": "HSDAVFTDNYTRLRKQMARKKYLNSIQNRI", "note": "[rR3P187]", "R3 EC50, nM (cAMP SPA)": 1.6, "R3 Selectivity": "> 80"},
      {"molecule": "HSDAVFTDNYTRLRKQMAGKKYLNSIQNRI", "note": "[rR3P185]", "R3 EC50, nM (cAMP SPA)": 4.5, "R3 Selectivity": 40},
      {"molecule": "HSDAVFTDNYTRLRKQMASKKYLNSIKNRI", "note": "[rR3P178]", "R3 EC50, nM (cAMP SPA)": 0.75, "R3 Selectivity": 110},
      {"molecule": "HSDAVFTDNYTRLRKQMAAKKYLNSIQNRI", "note": "[rR3P184]", "R3 EC50, nM (cAMP SPA)": 0.37, "R3 Selectivity": 30},
      {"molecule": "HSDGIFTDSYSRYRKKMAVKKYLAAVL-NH2", "note": "[PAC16]", "R3 EC50, nM (cAMP SPA)": 0.2, "R3 Selectivity": 1},
      {"molecule": "HSDGIFTDSYSRYRKQMAVKKYLAAVK-NH2", "note": "[PAC27]", "R3 EC50, nM (cAMP SPA)": 1.1, "R3 Selectivity": 1.4},
      {"molecule": "HSDAVFTDNYTRLRKQMARKKYLNSIRNRI", "note": "[rR3P192]", "R3 EC50, nM (cAMP SPA)": 0.6, "R3 Selectivity": 60},
      {"molecule": "HSDAVFTDNYTRLRKQMAGKKYLNSIPNRI", "note": "[rR3P180]", "R3 EC50, nM (cAMP SPA)": 6.7, "R3 Selectivity": "> 20"},
      {"molecule": "HSDAVFTDNYTRLRKQMAKKKYLNSIKNRI", "note": "[rR3P176]", "R3 EC50, nM (cAMP SPA)": 2, "R3 Selectivity": 150},
      {"molecule": "HSDAVFTDNYTRLRKQMAGKKYLNSIRNRI", "note": "[rR3P190]", "R3 EC50, nM (cAMP SPA)": 2.2, "R3 Selectivity": 100},
      {"molecule": "HSDAVFTDNYTRLRKQMAAKKYLNSIPNRI", "note": "[rR3P179]", "R3 EC50, nM (cAMP SPA)": 1.5, "R3 Selectivity": 150},
      {"molecule": "HSDAVFTDNYTRLRKQMAAKKYLNSIRNRI", "note": "[rR3P189]", "R3 EC50, nM (cAMP SPA)": 0.04, "R3 Selectivity": 30},
      {"molecule": "HSDAVFTDNYTRLRKQMASKKYLNSIQNRI", "note": "[rR3P188]", "R3 EC50, nM (cAMP SPA)": 2.2, "R3 Selectivity": 70},
      {"molecule": "HSDAVFTDNYTRLRKQMAKKKYLNSIRNRI", "note": "[rR3P191]", "R3 EC50, nM (cAMP SPA)": 2.7, "R3 Selectivity": "> 80"},
      {"molecule": "HSDAVFTDNYTRLRKQMAAKKYLNSIKNRI", "note": "[rR3P174]", "R3 EC50, nM (cAMP SPA)": 0.2, "R3 Selectivity": 90},
      {"molecule": "HSDGIFTDSYSRYRKQKAVKKYLAAVL-NH2", "note": "[PAC17]", "R3 EC50, nM (cAMP SPA)": 0.15, "R3 Selectivity": 1.6},
      {"molecule": "HSDGIFTDSYSRYRKQMAKKKYLAAVL-NH2", "note": "[PAC19]", "R3 EC50, nM (cAMP SPA)": 0.4, "R3 Selectivity": 20},
      {"molecule": "HSDAVFTDNYTRLRKQMAKKKYLNSIQNRI", "note": "[rR3P186]", "R3 EC50, nM (cAMP SPA)": 1.6, "R3 Selectivity": 44},
      {"molecule": "HSDAVFTDNYTRLRKQMARKKYLNSIKNRI", "note": "[rR3P177]", "R3 EC50, nM (cAMP SPA)": 1.6, "R3 Selectivity": 70},
      {"molecule": "HSDGIFTDSYSRYRKQMAVKEYLAAVL-NH2", "note": "[PAC21]", "R3 EC50, nM (cAMP SPA)": 0.24, "R3 Selectivity": 10},
      {"molecule": "HSDAVFTDNYTRLRKQMAKKKYLNSIPNRI", "note": "[rR3P181]", "R3 EC50, nM (cAMP SPA)": 5.1, "R3 Selectivity": 50},
      {"molecule": "HSDGIFTDSYSRYRKQMAVKKYLAAKL-NH2", "note": "[PAC26]", "R3 EC50, nM (cAMP SPA)": 0.3, "R3 Selectivity": 1},
      {"molecule": "HSDGIFTDSYSRYRKQMAVEKYLAAVL-NH2", "note": "[PAC20]", "R3 EC50, nM (cAMP SPA)": 0.7, "R3 Selectivity": 30},
      {"molecule": "HSDGIFTDSYSRYREQMAVKKYLAAVL-NH2", "note": "[PAC15]", "R3 EC50, nM (cAMP SPA)": 0.2, "R3 Selectivity": 12},
      {"molecule": "HSDAVFTDNYTRLRKQMARKKYLNSIPNRI", "note": "[rR3P182]", "R3 EC50, nM (cAMP SPA)": 3.2, "R3 Selectivity": 90},
      {"molecule": "HSDAVFTDNYTRLRKQMASKKYLNSIRNRI", "note": "[rR3P193]", "R3 EC50, nM (cAMP SPA)": 1.9, "R3 Selectivity": 110},
      {"molecule": "HSDGIFTDSYSRYRKQMAVKKYLKAVL-NH2", "note": "[PAC24]", "R3 EC50, nM (cAMP SPA)": 0.2, "R3 Selectivity": 1.5}
    ]},
    {"test_system": "not listed separately", "test": "Intraperitoneal glucose tolerance test (IPGTT), plasma glucose in rats", "assay_type": "in vivo, Wistar rats", "settings": "1 nmole/kg s.c., rats, FIG. 7", "procedure": "Wistar rats are fasted overnight and then anesthetized with pentobarbital. The rats were eye-bled (zero time) and the peptide (in 1% human albumin) was injected into the tail vein. Five minutes later, 1 g/kg of glucose (in saline) was injected intraperitoneally, and the rats were eye-bled after 15, 30 and 60 minutes. Plasma glucose levels were determined using the Technicon Axon autoanalyzer, Bayer Diagnosics division of Bayer Corporation, Tarrytown N.Y., operated using Method No. SM4-2143F90“Glucose”.\nWistar rats were fasted overnight and then anesthetized with Pentobarbital. The rats were eye-bled (zero time) and the peptide (in 1% human albumin) was injected subcutaneously. Five minutes later, 1 g/kg of glucose (in saline) was injected intraperitoneally, and the rats were eye-bled after 30 minutes.\nPlasma glucose: Data are expressed as % of vehicle of plasma glucose area under the curve after IPGTT (1 g/kg glucose) after treatment with 1 nmol/kg dose of the peptide. […] The present inventors have shown for the first time that this is because the effects of R2 and R3 on glucose tend to cancel each other out. […] Therefore, R3-selectivity appears to be a desirable attribute for medicaments which are to be employed in achieving blood glucose reduction, for treatment of type 2 diabetes.", "values": [
      {"molecule": "HAEGTFTSDV SSYLEGQAAK EFIAWLVKGR-NH2 (HAEGTFTSDVSSYLEGQAAKEFIAWLVKGR-NH2) [GLP-1, incretin hormone released from the intestinal L-cell, a known insulin secretagogue, reference compound]", "elevation of plasma glucose 30 minutes after IPGTT": "enhance glucose disposal"}
    ]}
  ]
}
